Results taken from US20260209365A1, “ANTI-COMMON GAMMA CHAIN PROTEINS AND COMPOSITIONS OF MATTER” (SINOMAB BIOSCIENCE LIMITED, priority 2023, published 2026).
Positions count from the first letter of the chain named.

B1: SM-05J: anti-γc antibody; CDR SEQ ID NO: 148, 150, 152, 156, 158, 160 (antibody, V domains shown)
VH: EVQLQQSGPELVKPGASVKISCKTSGYTFTEYTMHWVKQSHGKSLEWIGGIDPYNGGITYNQRFKGKATLTVDKSSSTAYMELRSLTSEDSAVYYCARRRLYYGYALDYWGQGTSVTVSS
VL: DVVMTQTPLSLPVSLGDQASISCRSSQSIVHSNGNTYLEWYLQKPGQSPKLLIYKVSNRFSGVPDRFSGSGSGTDFTLKISRVEAEDLGVYYCFQGSHVPFTFGSGTKLEIK
modifications: left off: another chain or arm of the molecule; small tags and cut ends
B2: SM-05L: anti-γc antibody; CDR SEQ ID NO: 180, 182, 184, 188, 190, 192 (antibody, V domains shown)
VH: B1 VH with Y54N, N55S, I58A, R63K, L83V, L107M
VL: B1 VL with V3L, D17G, S28N, Y92F, F94S, G96S, S97T, T102A
modifications: left off: another chain or arm of the molecule; small tags and cut ends
B3: SM-05D: anti-γc antibody; CDR SEQ ID NO: 52, 54, 56, 60, 62, 64 (antibody, V domains shown)
VH: B1 VH with E1Q, I58V, L83F, Y105N
VL: B1 VL with V2I, S32R
modifications: left off: another chain or arm of the molecule; small tags and cut ends
B4: SM-05B: anti-γc antibody; CDR SEQ ID NO: 20, 22, 24, 28, 30, 32 (antibody, V domains shown)
VH: B1 VH with E1Q, S21F, K43E, Y54N, N55T, I58A, R63K, V72A, L101R
VL: B1 VL with V3L, Y92F, F94S, G96S, S97T, F101W, S105G
modifications: left off: another chain or arm of the molecule; small tags and cut ends
B5: SM-05C: anti-γc antibody; CDR SEQ ID NO: 36, 38, 40, 44, 46, 48 (antibody, V domains shown)
VH: B1 VH with E1Q, S21F, K43E, Y54N, N55T, I58A, R63K, V72A, L101R, L107M
VL: B1 VL with I29L, E39H, V90I, G96D
modifications: left off: another chain or arm of the molecule; small tags and cut ends

test system: IL-4 induced STAT6 phosphorylation; test: Inhibition of IL-4 induced STAT phosphorylation in Ramos B cell line, flow cytometry; type: cell-based, human; details: ScFv 10 μg/ml
Excerpt: (§1) Cells were harvested and stained with FITC conjugated anti-pSTAT6, PE conjugated anti-pSTAT3 or APC con jugated anti-pSTAT5 antibodies for flow cytometry analyses. In some embodiments, the purified ScFv could block the IL-4 induced STAT6 phosphorylation in cell culture (e.g., Ramos). In some embodiments, the purified ScFv could block the IL-7 induced STAT5 phosphorylation in cell culture (e.g., HPB-ALL). In some embodiments, the purified ScFv could block the IL-9 induced STAT3 phosphorylation in cell culture (e.g., Jurkat). In some embodiments, the purified ScFv could block the IL-15 induced STAT5 phosphorylation in cell culture (e.g., KHYG-1). In some embodiments, the purified ScFv could block the IL-21 induced STAT3 phosphorylation in cell culture (e.g., Ramos).
(§2) Flow cytometry was employed to measure the percentage of p-STAT expressing cells after cytokine induction and anti-γc ScFv treatment. KHYG-1 (Creative Bioarray, Shirley, NY 11967, USA) was starved in IL-2 free RPMI1640 (ATCC modification, ThermoFisher Scientific, Waltham, MA, USA) with 10% FBS (ThermoFisher Scientific) for 2 days. Ramos, HPB-ALL and Jurkat cell lines were used directly without starvation. Cells were replenished with fresh RPMI1640 medium and pretreated with anti-γc ScFv (10 μg/mL) for an hour. After treatment with TL-4 (10 ng/ml, Sino Biological), IL-7 (50 ng/ml, Sino Biological), IL-9 (50 ng/ml, Sino Biological), IL-15 (10 ng/ml, Sino Biological) or IL-21 (10 ng/ml, Sino Biological) for 15 min, cells were fixed in 4% paraformaldehyde (PFA, Sigma, St. Louis, Missouri, USA) for 10 min, permeabilized in 0.1% Triton X-100 (Sigma) for 10 min and then stained with FITC conjugated anti-pSTAT6, PE conjugated anti-pSTAT3 or APC con jugated anti-pSTAT5 (all diluted in 1:100, Biolegend, San Diego, California, USA) for 30 min at 37° C. Percentage of p-STAT expressing cells was measured by BD FACSLyric™ Clinical Flow Cytometry System (BD Biosciences, New Jersey, USA). Data were analyzed by Flowjo (version 10, BD).
(§3) Different cell lines were used for testing. KHYG-1 refers to the NK cell line harvested from the peripheral blood of a person with aggressive NK cell leukemia. This cell line could respond to IL-2 and IL-15 stimulation in-vitro [Yamasaki et al., Leuk Res., […]; 28 (10): 1023-31]. Ramos is a human Burkitts Lymphoma cell line (CRL-1596™) and could be used as a model for IL-4 and IL-21 studies [Hui et al., Front Immunol., 2022; 13: 919854]. Jurkat is a human T lymphoblast cell line (Clone E6-1, TIB-152™) and is widely used in the T cell studies of IL-9 function. HPB-ALL is a T cell leukemia model established from the peripheral blood of a child with ALL and thymoma at diagnosis in 1973 and could be used for IL-7 functional studies.

First: B1
Second: B2
The “p-STAT6 inhibition (%)” value of the first is higher: 82.22% for the first, 73.54% for the second.

Going from B3 to B4, the “p-STAT6 inhibition (%)” value rises from 63.77% to 76.95%.

For B5, the “p-STAT6 inhibition (%)” value was 45.99%.

test system: IL-21 induced STAT3 phosphorylation; test: Inhibition of IL-21 induced STAT phosphorylation in Ramos B cell line, flow cytometry; type: cell-based, human; details: ScFv 10 μg/ml
Excerpt: as §1, §2, §3

Going from B1 to B2, the “p-STAT3 inhibition (%)” value falls from 75.77% to 26.03%.

Going from B3 to B4, the “p-STAT3 inhibition (%)” value falls from 30.00% to 13.85%.

In the case of B5, the “p-STAT3 inhibition (%)” value is reported as 29.10%.

test system: IL-7 induced STAT5 phosphorylation; test: Inhibition of IL-7 induced STAT5 phosphorylation in HPB-ALL T cell line, flow cytometry; type: cell-based, human; details: ScFv 10 μg/ml
Excerpt: as §1, §2, §3

Compared with B1, B2 is higher in “p-STAT5 inhibition (%)” value: 98.10% for the first, 100% for the second.

Compared with B3, B4 is lower in “p-STAT5 inhibition (%)” value: 99.80% for the first, 94.50% for the second.

In the case of B5, the “p-STAT5 inhibition (%)” value is reported as 100%.

test system: IL-15 induced STAT5 phosphorylation; test: Inhibition of IL-15 induced STAT phosphorylation in KHYG-1 NK cell line, flow cytometry; type: cell-based, human; details: ScFv 10 μg/ml
Excerpt: as §1, §2, §3

Compared with B1, B2 is higher in “p-STAT5 inhibition (%)” value: 42.71% for the first, 49.10% for the second.

Going from B3 to B4, the “p-STAT5 inhibition (%)” value falls from 48.59% to 47.06%.

With B5 the “p-STAT5 inhibition (%)” value was 46.04%.

test system: IL-9 induced STAT3 phosphorylation; test: Inhibition of IL-9 induced STAT3 phosphorylation in Jurkat T cell line, flow cytometry; type: cell-based, human; details: ScFv 10 μg/ml
Excerpt: as §1, §2, §3

Compared with B1, B2 is lower in “p-STAT3 inhibition (%)” value: 100% for the first, 92.36% for the second.

Compared with B3, B4 is lower in “p-STAT3 inhibition (%)” value: 100% for the first, 82.64% for the second.

In the case of B5, the “p-STAT3 inhibition (%)” value is reported as 97.92%.
